Measured values as given in patent US20140179896A1 (published 2014).
Changes are numbered by the printed parent chain.

Legend:
[1] = target: T1, mouse vascular endothelial growth factor receptor-2 Fc chimera (Flk-1-Fc) (mouse, UniProt P35918 20-762); assay: BIAcore, target-Fc immobilized
T1 construct: purchased from R&D Systems; also called mouse VEGF-R2-Fc; not shown: Fc part of the purchased chimera
Procedure: (§1) The binding kinetics of fibronectin-based scaffold proteins binding proteins to the target was measured using BIAcore 2000 biosensor (Pharmacia Biosensor). Human and mouse VEGF-R2-Fc fusions were immobilized onto a CM5 sensor chip and soluble binding proteins were injected at concentrations ranging from 0 to 100 nM in buffer 0 (10 mM HEPES, 150 mM NaCl, 0.005% Tween 20, pH 7.4). Sensorgrams were obtained at each concentration and were evaluated using a program, BIA Evaluation 2.0 (BIAcore), to determine the rate constants kₐ (kₒₙ) and kd (koff.) The affinity constant, KD was calculated from the ratio of rate constants […].
T1 sequence (P35918 20-762, change not shown): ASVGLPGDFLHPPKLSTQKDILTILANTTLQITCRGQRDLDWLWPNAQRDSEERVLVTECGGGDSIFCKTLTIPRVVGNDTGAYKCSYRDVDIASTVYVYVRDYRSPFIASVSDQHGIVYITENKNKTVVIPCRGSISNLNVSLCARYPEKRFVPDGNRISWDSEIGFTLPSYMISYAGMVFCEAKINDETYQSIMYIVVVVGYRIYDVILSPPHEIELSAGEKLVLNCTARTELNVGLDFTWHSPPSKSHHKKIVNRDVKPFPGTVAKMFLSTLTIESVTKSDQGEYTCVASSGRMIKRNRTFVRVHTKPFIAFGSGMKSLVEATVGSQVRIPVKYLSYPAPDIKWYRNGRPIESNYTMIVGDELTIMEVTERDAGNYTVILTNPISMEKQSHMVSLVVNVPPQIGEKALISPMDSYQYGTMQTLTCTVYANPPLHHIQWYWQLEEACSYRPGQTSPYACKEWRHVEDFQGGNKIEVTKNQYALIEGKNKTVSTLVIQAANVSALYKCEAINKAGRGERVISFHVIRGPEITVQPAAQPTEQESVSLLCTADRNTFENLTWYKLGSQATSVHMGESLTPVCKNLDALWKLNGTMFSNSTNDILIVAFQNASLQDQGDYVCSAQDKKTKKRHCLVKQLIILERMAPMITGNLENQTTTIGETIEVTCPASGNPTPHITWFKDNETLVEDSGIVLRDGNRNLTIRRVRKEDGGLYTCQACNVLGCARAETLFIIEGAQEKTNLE

[2] = target: T2, human vascular endothelial growth factor receptor-2 Fc chimera (KDR-Fc) (human, UniProt P35968 20-764); assay: BIAcore, target-Fc immobilized
T2 construct: range 1-764; purchased from R&D Systems; also called hKDR; human VEGF-R2-Fc; not shown: human IgG1 Fc
Procedure: as §1
T2 sequence (P35968 20-764 limits assumed, change not shown, form in doubt): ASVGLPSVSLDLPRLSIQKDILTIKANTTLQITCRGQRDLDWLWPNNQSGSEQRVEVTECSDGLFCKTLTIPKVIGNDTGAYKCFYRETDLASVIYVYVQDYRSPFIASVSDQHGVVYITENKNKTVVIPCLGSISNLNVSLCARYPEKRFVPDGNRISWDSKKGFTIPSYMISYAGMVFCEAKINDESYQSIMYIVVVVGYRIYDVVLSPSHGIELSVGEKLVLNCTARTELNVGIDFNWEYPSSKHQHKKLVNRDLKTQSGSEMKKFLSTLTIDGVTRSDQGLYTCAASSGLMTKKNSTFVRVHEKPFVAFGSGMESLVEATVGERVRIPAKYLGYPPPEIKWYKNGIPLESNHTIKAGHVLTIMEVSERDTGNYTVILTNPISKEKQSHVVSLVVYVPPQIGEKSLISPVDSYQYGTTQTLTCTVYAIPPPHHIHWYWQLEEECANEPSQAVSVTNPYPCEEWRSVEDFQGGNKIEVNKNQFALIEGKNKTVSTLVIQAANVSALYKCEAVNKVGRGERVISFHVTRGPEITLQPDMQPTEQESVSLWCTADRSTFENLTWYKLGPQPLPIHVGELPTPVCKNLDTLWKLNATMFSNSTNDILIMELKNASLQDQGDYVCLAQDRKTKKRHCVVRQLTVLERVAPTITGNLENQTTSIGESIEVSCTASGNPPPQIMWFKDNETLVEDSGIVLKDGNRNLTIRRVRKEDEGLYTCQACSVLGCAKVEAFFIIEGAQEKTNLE

[3] = target: T1, mouse vascular endothelial growth …; assay: radioactive equilibrium binding assay
Procedure: (§2) To prepare ³⁵S-labeled binding proteins for analysis, mRNA was prepared as described above for RNA-protein fusion production but the linker ligation step was omitted. The mRNA was expressed using rabbit reticulocyte lysate translation kit (Ambion) in the presence of ³⁵S-labeled Met at 30° C. for 1 hour. Expressed protein was purified on M2-agarose Flag beads (Sigma) as described above. This procedure produced the encoded protein without the nucleic acid tail. In a direct binding assay, VEGF-R2-Fc fusions in concentrations ranging from 0 to 200 nM were added to a constant concentration of the purified protein (0.2 or 0.5 nM) and incubated at 30° C. for 1 hour in buffer B. The receptor-binder complexes were captured using Protein A magnetic beads for another 10 minutes at room temperature using a Kingfisher™ The beads were washed with six reaction volumes of buffer B. The protein was eluted from the beads with 100 μL of 0.1 M KOH. […] of the reaction mixture and elution were dried onto a LumaPlate-96 (Packard) and the amount of ³⁵S on the plate was measured using a TopCount NXT instrument (Packard). The amount of fibronectin-based scaffold protein bound to the target was estimated as a percent of radioactivity eluted from Protein A magnetic beads compare to radioactivity in the reaction mixture. Nonspecific binding of fibronectin-based scaffold proteins to the beads was determined by measuring binding in the absence of KDR-Fc and represented less than 1-2% of the input. Specific binding was obtained through subtraction of nonspecific binding from total binding. Data was analyzed using the GraphPad Prizm software (GraphPad Software, Inc, San Diego, Calif.), fitted using a one site, non-linear binding equation.

[4] = target: T2, human vascular endothelial growth …; assay: radioactive equilibrium binding assay
Procedure: as §2

[5] = target: T3, human vascular endothelial growth factor receptor-2 Fc chimera (KDR-Fc) (human, UniProt P35968 20-764); assay: radioactive equilibrium binding assay, 1 nM KDR-Fc, % of input bound
T3 construct: range 1-764; also called human VEGFR-2; not shown: human IgG1 Fc
How it was run: (§3)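 Receptor-Fc fusions titrated from 0 to 200 nM against a fixed 0.2 or 0.5 nM of ³⁵S-labeled scaffold protein for 1 h at 30° C. Protein A bead pull-down followed by scintillation counting of eluate versus reaction mixture. Specific binding is total minus no-receptor binding, fitted to a one-site nonlinear equation.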
T3 sequence (P35968 20-764 limits assumed, change not shown, form in doubt): as above

[6] = target: T3, human vascular endothelial growth …; assay: radioactive equilibrium binding assay, KDR-Fc
Procedure: as §2

[7] = target: T4, mouse vascular endothelial growth factor receptor-2 Fc chimera (Flk-1-Fc) (mouse, UniProt P35918 20-762); assay: radioactive equilibrium binding assay, Flk-1-Fc
T4 construct: Bought from R&D Systems; also called mouse VEGFR-2; not shown: Fc part of the purchased chimera, not specified
Procedure: as §2
T4 sequence (P35918 20-762, change not shown): as the sequence (P35918 20-762, change not shown) above

[8] = target: T4, mouse vascular endothelial growth …; assay: radioactive equilibrium binding assay, 1 nM Flk-1-Fc, % of input bound
How it was run: as §3

[9] = target: T5, human vascular endothelial growth factor receptor-2 Fc chimera (KDR-Fc) (human, UniProt P35968 20-764); assay: radioactive equilibrium binding, KDR-Fc
T5 construct: range 1-764; also called human VEGFR-2; VEGF-R2-Fc; not shown: human IgG1 Fc
Procedure: as §2
T5 sequence (P35968 20-764 limits assumed, change not shown, form in doubt): as the sequence (P35968 20-764 limits assumed, change not shown, form in doubt) above

[10] = target: T5, human vascular endothelial growth …; assay: radioactive equilibrium binding, 1 nM KDR-Fc
How it was run: as §3

[11] = target: T2, human vascular endothelial growth …; assay: radioactive equilibrium binding assay, KDR-Fc
Procedure: as §2

B1: E6 (designed binder)
chain: EVVAATPTSLLISWRHPHFPTRYYRITYGETGGNSPVQEFTVPLQPPTATISGLKPGVDYTITGYAVTDGWNGRLLSIPISINYRT
notes: Del 1-8 10Fn3 clone; Flag-tagged in vitro translated protein in the radioactive assay, His6-tagged E. coli protein in BIAcore; tags left out
With B1 the Kd [1] was 2.02 nM, the koff [1] was 0.00136 s⁻¹ and the kon [1] was 670000 M⁻¹ s⁻¹. It also gave a Kd [2] of 0.08 nM, a koff [2] of 6.7e-05 s⁻¹ and a kon [2] of 890000 M⁻¹ s⁻¹. For the same binder, the Kd [3] was 7.1 nM and the Kd [4] was less than 0.4 nM.

B2: E9 (designed binder)
chain: B1 chain with D69E, G70E, W71R, L75T, S77R, I78T
notes: Del 1-8 10Fn3 clone; Flag-tagged in vitro translated protein in the radioactive assay; tag left out
For B2, the Kd [3] was less than 1.4 nM and the Kd [4] was 2.4 nM.

B3: E28 (designed binder)
chain: B1 chain with D69L, G70E, W71R, L75E, S77M, I78V
notes: as for B2
B3 was tested, and the Kd [3] was 2.1 nM and the Kd [4] was less than 1.6 nM.

B4: E26 (designed binder)
chain: B1 chain with D69V, G70E, W71R, L75E, S77M, I78T
notes: 10Fn3 clone, Del 1-8
For B4, the “Binding to 1 nM KDR, %” value [5] was 27%, the Kd [6] was 1.66 nM and the Kd [7] was 2.05 nM. For the same binder, the “Binding to 1 nM Flk-1, %” value [8] was 20%.

B5: E3 (designed binder)
chain: B1 chain with W71R, G73D, L75K, S77M, I78V
notes: 10Fn3 clone, Del 1-8
B5 was tested, and the “Binding to 1 nM KDR, %” value [5] was 37%, the Kd [6] was 0.96 nM and the Kd [7] was 5.4 nM. The “Binding to 1 nM Flk-1, %” value [8] was 14%.

B6: E5 (designed binder)
chain: B1 chain with W71Q, S77N, I78V
notes: 10Fn3 clone, Del 1-8
For B6, the “Binding to 1 nM KDR, %” value [5] was 26%, the Kd [6] was 0.4 nM and the Kd [7] was 3.2 nM. The “Binding to 1 nM Flk-1, %” value [8] was 10%.

B7: E6 (designed binder)
chain: B1 chain
notes: 10Fn3 clone, Del 1-8
For B7, the “Binding to 1 nM KDR, %” value [5] was 36%, the Kd [6] was 0.35 nM and the Kd [7] was 7.1 nM. The “Binding to 1 nM Flk-1, %” value [8] was 7%.

B8: E9 (designed binder)
chain: B1 chain with D69E, G70E, W71R, L75T, S77R, I78T
notes: 10Fn3 clone, Del 1-8
In the case of B8, the “Binding to 1 nM KDR, %” value [5] is reported as 24%, the Kd [6] is reported as 2.37 nM and the Kd [7] is reported as 1.4 nM. The “Binding to 1 nM Flk-1, %” value [8] was 34%.

B9: E18 (designed binder)
chain: B1 chain with D69V, G70E, W71R, L75E, S77N, I78T
notes: 10Fn3 clone, Del 1-8
With B9 the “Binding to 1 nM KDR, %” value [5] was 17%, the Kd [6] was 1.2 nM and the Kd [7] was 0.53 nM. The “Binding to 1 nM Flk-1, %” value [8] was 29%.

B10: E19 (designed binder)
chain: B1 chain with D69V, G70E, W71R, L75H, S77M, I78T
notes: 10Fn3 clone, Del 1-8
With B10 the “Binding to 1 nM KDR, %” value [5] was 38%, the Kd [6] was 1.3 nM and the Kd [7] was 0.66 nM. The “Binding to 1 nM Flk-1, %” value [8] was 40%.

B11: E25 (designed binder)
chain: B1 chain with D69L, G70E, W71R, L75E, S77M, I78T
notes: 10Fn3 clone, Del 1-8
B11 was tested, and the “Binding to 1 nM KDR, %” value [5] was 41%, the Kd [6] was 1.58 nM and the Kd [7] was 1.3 nM. The “Binding to 1 nM Flk-1, %” value [8] was 28%.

B12: E28 (designed binder)
chain: B1 chain with D69L, G70E, W71R, L75E, S77M, I78V
notes: 10Fn3 clone, Del 1-8
B12 was tested, and the “Binding to 1 nM KDR, %” value [5] was 19%, the Kd [6] was 1.63 nM and the Kd [7] was 2.1 nM. The “Binding to 1 nM Flk-1, %” value [8] was 21%.

B13: E29 (designed binder)
chain: B1 chain with D69V, G70E, W71R, L75V, S77M, I78T
notes: 10Fn3 clone, Del 1-8
For B13, the “Binding to 1 nM KDR, %” value [5] was 41%, the Kd [6] was 1.51 nM and the Kd [7] was 0.91 nM. The “Binding to 1 nM Flk-1, %” value [8] was 44%.

B14: K9 (designed binder)
chain: B1 chain with D69F, W71L, N72Y, R74K, L75E, S77L
notes: Del 1-8
B14 was tested, and the Kd [9] was 1.8 nM and the “Binding to 1 nM KDR, %” value [10] was 35%.

B15: K10 (designed binder)
chain: B1 chain with D69T, W71P, G73D, S77F, I78V
notes: Del 1-8
For B15, the Kd [9] was 0.57 nM and the “Binding to 1 nM KDR, %” value [10] was 33%.

B16: K11 (designed binder)
chain: B1 chain with D69Q, G70A, W71P, G73D, L75V, S77Y, I78T
notes: Del 1-8
In the case of B16, the Kd [9] is reported as 1.16 nM and the “Binding to 1 nM KDR, %” value [10] is reported as 24%.

B17: K12 (designed binder)
chain: B1 chain with G70V, W71Y, G73D, R74H, L75E, L76I, S77K, I78T
notes: Del 1-8
In the case of B17, the Kd [9] is reported as 0.62 nM and the “Binding to 1 nM KDR, %” value [10] is reported as 29%.

B18: K13 (designed binder)
chain: B1 chain with D69L, G70A, W71L, N72K, R74H, L75E, S77L, I78T
notes: Del 1-8; 246 used
B18 was tested, and the Kd [9] was 0.58 nM and the “Binding to 1 nM KDR, %” value [10] was 17%.

B19: K14 (designed binder)
chain: B1 chain with D69R, G70E, W71E, G73D, R74H, L75E, S77L
notes: Del 1-8
In the case of B19, the Kd [9] is reported as 0.57 nM and the “Binding to 1 nM KDR, %” value [10] is reported as 20%.

B20: K15 (designed binder)
chain: B1 chain with D69E, G70V, W71H, N72H, G73D, L75E, L76I, S77K, I78T
notes: Del 1-8
For B20, the Kd [9] was 0.35 nM and the “Binding to 1 nM KDR, %” value [10] was 25%.

B21: E3 (designed binder)
chain: B1 chain with W71R, G73D, L75K, S77M, I78V
notes: as for B2
For B21, the Kd [3] was 5.4 nM and the Kd [4] was less than 1 nM.

B22: E5 (designed binder)
chain: B1 chain with W71Q, S77N, I78V
notes: as for B2
In the case of B22, the Kd [3] is reported as 3.2 nM and the Kd [4] is reported as less than 0.4 nM.

B23: E25 (designed binder)
chain: B1 chain with D69L, G70E, W71R, L75E, S77M, I78T
notes: as for B1
B23 showed a Kd [1] of 0.76 nM, a koff [1] of 0.000378 s⁻¹ and a kon [1] of 500000 M⁻¹ s⁻¹. It also gave a Kd [2] of 0.21 nM, a koff [2] of 5.2e-05 s⁻¹ and a kon [2] of 250000 M⁻¹ s⁻¹. It also gave a Kd [3] of less than 1.3 nM and a Kd [4] of less than 1.6 nM.

B24: K1 (designed binder)
chain: B1 chain with D69M, W71L, N72Y, R74H, L75E, S77L, I78T
notes: tag left out
Binder B24 has a Kd [11] of less than 0.6 nM.

B25: K6 (designed binder)
chain: B1 chain with W71K, N72D, L75V, S77L, I78T
notes: tag left out
Work on B25 yielded a Kd [11] of less than 0.9 nM.

B26: K9 (designed binder)
chain: B1 chain with D69F, W71L, N72Y, R74K, L75E, S77L
notes: tag left out
B26 gave a Kd [11] of less than 1.8 nM.

B27: K10 (designed binder)
chain: B1 chain with D69T, W71P, G73D, S77F, I78V
notes: tag left out
Binder B27 has a Kd [11] of less than 0.6 nM.

B28: K12 (designed binder)
chain: B1 chain with G70V, W71Y, G73D, R74H, L75E, L76I, S77K, I78T
notes: tag left out
B28 gave a Kd [11] of less than 0.6 nM.

B29: K13 (designed binder)
chain: B1 chain with D69L, G70A, W71L, N72K, R74H, L75E, S77L, I78T
notes: tag left out
In the case of B29, the Kd [11] is reported as less than 0.6 nM.

B30: K14 (designed binder)
chain: B1 chain with D69R, G70E, W71E, G73D, R74H, L75E, S77L
notes: tag left out
In the case of B30, the Kd [11] is reported as less than 0.6 nM.

B31: K15 (designed binder)
chain: B1 chain with D69E, G70V, W71H, N72H, G73D, L75E, L76I, S77K, I78T
notes: tag left out
B31 showed a Kd [11] of less than 0.4 nM.
